The target of assay [1] is T1, human insulin receptor extracellular domain (HIR ECD) (human, UniProt P06213 28-956, limits assumed).
T1 construct: extracellular domain
Kind of assay: ELISA, HIR ECD plated; after normalization for MW (150 kDa). The procedure: (§1) The affinity of the fusion protein for the HIR extracellular domain (ECD) was determined with an ELISA. CHO cells permanently transfected with the HIR ECD were grown in serum free media (SFM), and the HIR ECD was purified with a wheat germ agglutinin affinity column, as previously described in Coloma et al. (2000) Pharm Res, 17:266-274. The HIR ECD was plated on Nunc-Maxisorb 96 well dishes and the binding of the HIR Ab, or the HIR Ab-SGSH fusion protein, to the HIR ECD was detected with a biotinylated goat anti-human IgG (H+L) secondary antibody, followed by avidin and biotinylated peroxidase (Vector Labs, Burlingame, Calif.). […] The MW of the HIR Ab is 150 kDa, and the MW of the HIR Ab-SGSH fusion protein is 325 kDa.

The target of assay [2] is T1, human insulin receptor extracellular …. Description: ELISA, HIR ECD plated, biotinylated anti-human IgG detection. The procedure: as §1
Background: In an ELISA, binding on a coated surface is turned into a signal by an enzyme label.

The target is the same in assay [3]. Description: ELISA, HIR ECD plated; after normalization for MW (325 kDa). The procedure: as §1

The values that follow come from patent US20200308292A1 (ARMAGEN TECHNOLOGIES, published 2020).

B1: chimeric HIRMAb (monoclonal antibody to the human insulin receptor) (antibody, human IgG1, kappa)
heavy: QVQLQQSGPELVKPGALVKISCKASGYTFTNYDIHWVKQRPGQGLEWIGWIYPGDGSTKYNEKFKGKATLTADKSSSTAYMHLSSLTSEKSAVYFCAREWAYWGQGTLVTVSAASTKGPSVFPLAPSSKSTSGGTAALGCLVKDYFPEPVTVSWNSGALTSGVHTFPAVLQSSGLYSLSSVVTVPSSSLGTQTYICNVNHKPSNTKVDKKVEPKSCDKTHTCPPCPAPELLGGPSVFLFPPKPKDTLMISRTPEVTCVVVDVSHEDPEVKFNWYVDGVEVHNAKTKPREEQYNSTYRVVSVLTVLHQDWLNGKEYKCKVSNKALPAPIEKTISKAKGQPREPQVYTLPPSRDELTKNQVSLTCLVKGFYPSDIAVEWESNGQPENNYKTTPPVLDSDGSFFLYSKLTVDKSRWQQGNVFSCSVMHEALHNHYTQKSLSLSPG
light: DIQMTQSPSSLSASLGERVSLTCRASQDIGGNLYWLQQGPDGTIKRLIYATSSLDSGVPKRFSGSRSGSDYSLTISSLESEDFVDYYCLQYSSSPWTFGGGTKMEIKRTVAAPSVFIFPPSDEQLKSGTASVVCLLNNFYPREAKVQWKVDNALQSGNSQESVTEQDSKDSTYSLSSTLTLSKADYEKHKVYACEVTHQGLSSPVTKSFNRGEC
notes: Its tie to the tested chimeric HIRMAb is indirect; MW 150 kDa; also called HIR Ab; chimeric HIR Ab
As to B1, the EC50 in assay [1] amounted to 0.19 nM; in assay [2] it was 0.029 µg/mL.

B2: HIRMAb-SGSH fusion protein (antibody, human IgG1, kappa)
heavy: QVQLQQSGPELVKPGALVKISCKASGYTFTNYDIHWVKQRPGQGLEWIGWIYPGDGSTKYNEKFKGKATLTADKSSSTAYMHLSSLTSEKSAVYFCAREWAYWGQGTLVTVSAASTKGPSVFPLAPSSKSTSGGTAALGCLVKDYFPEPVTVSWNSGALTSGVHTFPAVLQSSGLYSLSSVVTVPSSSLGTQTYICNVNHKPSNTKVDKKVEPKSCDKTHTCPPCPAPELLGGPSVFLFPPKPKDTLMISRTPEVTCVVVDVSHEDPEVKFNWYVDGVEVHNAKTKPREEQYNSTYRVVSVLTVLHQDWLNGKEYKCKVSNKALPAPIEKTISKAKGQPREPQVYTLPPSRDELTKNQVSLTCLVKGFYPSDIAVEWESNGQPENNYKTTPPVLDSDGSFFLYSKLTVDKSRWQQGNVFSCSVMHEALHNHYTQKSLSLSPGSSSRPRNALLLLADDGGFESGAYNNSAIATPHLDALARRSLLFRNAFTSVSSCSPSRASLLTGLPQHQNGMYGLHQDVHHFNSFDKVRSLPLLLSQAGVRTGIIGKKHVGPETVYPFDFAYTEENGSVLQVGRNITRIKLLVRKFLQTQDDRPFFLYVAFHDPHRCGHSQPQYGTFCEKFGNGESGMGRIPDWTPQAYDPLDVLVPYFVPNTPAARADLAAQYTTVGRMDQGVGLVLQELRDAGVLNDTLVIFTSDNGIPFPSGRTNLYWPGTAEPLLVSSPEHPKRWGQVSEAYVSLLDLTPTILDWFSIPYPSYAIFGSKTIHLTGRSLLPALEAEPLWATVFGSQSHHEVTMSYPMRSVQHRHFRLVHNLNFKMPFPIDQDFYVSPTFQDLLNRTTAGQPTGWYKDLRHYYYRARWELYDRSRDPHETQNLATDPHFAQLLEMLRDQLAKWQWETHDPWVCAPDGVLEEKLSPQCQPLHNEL
light: B1 light
modifications: Cys-514 of SEQ ID NO 10 undergoes post-translational conversion to formylglycine (inferred by the filing from retained enzyme activity)
notes: IgG-enzyme fusion, hetero-tetramer, CHO-derived, estimated MW 325 kDa; also called HIR Ab-SGSH fusion protein; HIR Ab-SGSH fusion antibody
For B2, the EC50 came to 0.33 nM in assay [3] and 0.107 µg/mL in assay [2].

For orientation: EC50 means the concentration giving half of the maximal effect. The low end stands for a more potent agent, the high end for a less potent agent.
